Source: PMC9253770, “The C-Terminal Domain of Y-Box Binding Protein 1 Exhibits Structure-Specific Binding to Poly(ADP-Ribose), Which Regulates PARP1 Activity”

Biological target: YB-1 (Δ1-2) (UniProt P67809 1-230)
Test: fluorescence anisotropy; DNA binding similar to full-length; EC50 within 1100-3100 nM, exact value only in figure; 50 mM Tris-HCl pH 8.0, 40 mM NaCl, 1 mM DTT, 100 ug/ml BSA, 50 nM FAM-DNA, 25 C (anisotropy). PAR EMSA rows left out: PAR is a heterogeneous polymer without a defined nucleic acid sequence
Settings: protein: recombinant; label: 5'-FAM on strand 1; nicked 32-bp duplex, blunt ends; nick opposite strand 1 positions 15/16

Sequence of YB-1 (Δ1-2) (P67809 1-230, stated change not applied): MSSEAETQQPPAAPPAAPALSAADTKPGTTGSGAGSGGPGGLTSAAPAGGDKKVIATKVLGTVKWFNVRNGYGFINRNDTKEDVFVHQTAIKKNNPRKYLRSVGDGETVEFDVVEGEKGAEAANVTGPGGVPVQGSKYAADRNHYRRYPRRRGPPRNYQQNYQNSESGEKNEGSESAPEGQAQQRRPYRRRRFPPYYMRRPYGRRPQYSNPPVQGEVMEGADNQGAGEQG

B1: Nick (FAM-labeled nicked DNA duplex) (dsDNA)
DNA 1: CCGCTATTTCAACCCTTTGCAGTCCCAGAAGG
DNA 2: GGGTTGAAATAGCGG
DNA 3: CCTTCTGGGACTGCAAA
modifications: phosphate on the 17-mer (printed as 5'-p…)
  binding result: binds
